Measurements taken from patent US20170131282A1.

Columns and labels:
Assay in all cases: cell-based or functional assay
[1] = target: human chemokine receptor CCR3 on human prostate tumor cells (PC-3, Du-145) (human) (UniProt P51677)
[2] = target: mouse chemokine receptor CCR3 (NM_009914) on mouse prostate tumor cells (TRAMP-C1P3, RM1-BM) (mouse) (UniProt P51678)
[3] = target: mouse chemokine CCL7 secreted in conditioned media of mouse adipocytes / adipose tissue (mouse) (UniProt Q03366)
UniProt Q03366, sequence (Q03366 24-97): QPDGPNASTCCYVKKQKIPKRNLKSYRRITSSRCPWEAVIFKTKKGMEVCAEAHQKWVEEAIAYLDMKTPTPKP

UniProt P51678, sequence (P51678 whole entry): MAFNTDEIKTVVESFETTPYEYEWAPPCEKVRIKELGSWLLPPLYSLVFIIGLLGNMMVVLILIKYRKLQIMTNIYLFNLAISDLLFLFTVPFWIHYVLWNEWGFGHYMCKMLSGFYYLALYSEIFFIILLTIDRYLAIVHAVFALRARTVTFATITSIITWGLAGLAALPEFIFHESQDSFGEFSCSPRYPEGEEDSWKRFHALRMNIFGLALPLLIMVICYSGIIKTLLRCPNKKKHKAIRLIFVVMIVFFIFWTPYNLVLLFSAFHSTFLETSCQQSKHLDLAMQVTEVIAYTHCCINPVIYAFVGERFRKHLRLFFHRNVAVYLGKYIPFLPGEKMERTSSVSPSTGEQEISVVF
UniProt P51677, sequence (P51677 whole entry): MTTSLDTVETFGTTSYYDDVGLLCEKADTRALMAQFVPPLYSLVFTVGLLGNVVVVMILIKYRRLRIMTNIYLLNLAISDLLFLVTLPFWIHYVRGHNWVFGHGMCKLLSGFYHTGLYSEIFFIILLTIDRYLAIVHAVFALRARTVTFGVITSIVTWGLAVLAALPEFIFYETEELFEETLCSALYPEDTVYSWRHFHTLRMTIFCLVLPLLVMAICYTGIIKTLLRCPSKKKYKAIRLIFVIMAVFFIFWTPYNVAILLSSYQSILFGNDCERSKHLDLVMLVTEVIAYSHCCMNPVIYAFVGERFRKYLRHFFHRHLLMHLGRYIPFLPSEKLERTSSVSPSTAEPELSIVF

| migration of PC-3 and Du-145 prostate cells (Boyden chamber), dose from which the effect is significant [1] | chemotaxis of TRAMP-C1P3 cells (Boyden chamber), dose from which it is seen [2] | migration of RM1-BM cells (Boyden chamber) [2] | inhibition of migration of PC-3 and Du-145 cells against CM-Ad (Boyden chamber) [3] | inhibition of migration of PC-3 cells against CM of HFD AT-mu-PG (obese mice) [3] | inhibition of migration of PC-3 cells against CM of ND AT-mu-PG (normal-weight mice) [3] | Substance |
| --- | --- | --- | --- | --- | --- | --- |
| > 50 ng/mL | > 50 ng/mL | 100 ng/mL | – | – | – | human chemokine CCL7 (from UniProt P80098 24-99) (ligand) |
| – | – | – | 50 % inhibition | 60 % inhibition | 25 % inhibition | blocking antibody targeted against CCL7 (AF-456-NA, R&D System) |
